For this series, the target named is Sclerostin (SOST) (Mus musculus, UniProt Q99P68 Q99P68:1-211). The series is described as follows: ITC; PBS, 25 C; n=0.91, dH -10.9 kcal/mol, TdS -2.3 kcal/mol. To be noted: tags: GST fusion (pGEX-4T1, E. coli BL21(DE3)); parallel G4 (CD, Tm 75 C). The protocol: Sclerostin-aptamer interaction was investigated by studying the thermodynamics of the interaction of aptamer Scl 2 with sclerostin by Isothermal Titration Calorimetry. In the upper panel of FIG. 7 the calorimetric titrations of the aptamers into sclerostin solution conducted at 25° C. An exothermic heat pulse was observed after each injection of aptamers into the protein solution. The binding stoichiometry was fitted using simple single site binding model. […] The dissociation constant for the interaction of aptamer Scl 2 with sclerostin is 500 nM that is a competitive value in DNA-protein interactions. In addition, the values of ΔH and ΔS reveal that the binding processes are enthalpically driven with a favorable enthalpy of reaction (ΔH) at 25° C. of −10.9 kcal/mol offset by an unfavorable entropy of reaction (TΔS=−2.3 kcal/mol).
Chain of Sclerostin (SOST) (Q99P68 whole entry, the tested form may be a part, one chain of several): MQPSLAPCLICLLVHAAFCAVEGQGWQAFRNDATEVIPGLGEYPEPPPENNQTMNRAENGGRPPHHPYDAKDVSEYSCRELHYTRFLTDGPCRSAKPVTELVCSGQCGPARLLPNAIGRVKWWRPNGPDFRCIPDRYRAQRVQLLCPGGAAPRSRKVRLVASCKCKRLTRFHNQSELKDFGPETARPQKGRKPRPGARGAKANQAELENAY
For Isothermal Titration Calorimetry, equilibrium binding studies between anti-sclerostin aptamers and scleorstin are performed on MicroCal VP-ITC. In a typical ITC experiment, 15 μM GST-sclerostin or 20 μM GST was loaded into the cell with 200 μM aptamer or random sequence in the titrating syringe. GST-sclerostin and GST were dialyzed into the PBS buffer with a MWCO of 10,000. The titration experiments were performed at 25° C. with an initial 0.2 μl injection, followed by thirty 1.2 μl A injections. The spacing between injections was 200 s. […]

B1: Scl 2 (ssDNA)
DNA: TTGCGCGTTAATTGGGGGGGTGGGTGGGTT
B1 gave a Kd of 500 nM.

The values are drawn from patent publication US8552166, “High-affinity nucleic acid aptamers against sclerostin protein” (The University of Hong Kong).
